Target: RSV postfusion F (Flys-GCN without the StrepII-tag) (respiratory syncytial virus (RSV))
Experiment: cryo-EM structure

Question: How did the stoichiometry N turn out when “RSV postfusion F (Flys-GCN without the StrepII-tag) (domain or fragment)” was run?
Answer: The stoichiometry N was 3.

From publication PMC12340942
